The values below come from doi:10.1101/2020.07.06.189761.

The target in series [1] is T1, UM-Pif1 (unmodified Pif1) (Saccharomyces cerevisiae, UniProt P07271 1-859).
T1 sequence: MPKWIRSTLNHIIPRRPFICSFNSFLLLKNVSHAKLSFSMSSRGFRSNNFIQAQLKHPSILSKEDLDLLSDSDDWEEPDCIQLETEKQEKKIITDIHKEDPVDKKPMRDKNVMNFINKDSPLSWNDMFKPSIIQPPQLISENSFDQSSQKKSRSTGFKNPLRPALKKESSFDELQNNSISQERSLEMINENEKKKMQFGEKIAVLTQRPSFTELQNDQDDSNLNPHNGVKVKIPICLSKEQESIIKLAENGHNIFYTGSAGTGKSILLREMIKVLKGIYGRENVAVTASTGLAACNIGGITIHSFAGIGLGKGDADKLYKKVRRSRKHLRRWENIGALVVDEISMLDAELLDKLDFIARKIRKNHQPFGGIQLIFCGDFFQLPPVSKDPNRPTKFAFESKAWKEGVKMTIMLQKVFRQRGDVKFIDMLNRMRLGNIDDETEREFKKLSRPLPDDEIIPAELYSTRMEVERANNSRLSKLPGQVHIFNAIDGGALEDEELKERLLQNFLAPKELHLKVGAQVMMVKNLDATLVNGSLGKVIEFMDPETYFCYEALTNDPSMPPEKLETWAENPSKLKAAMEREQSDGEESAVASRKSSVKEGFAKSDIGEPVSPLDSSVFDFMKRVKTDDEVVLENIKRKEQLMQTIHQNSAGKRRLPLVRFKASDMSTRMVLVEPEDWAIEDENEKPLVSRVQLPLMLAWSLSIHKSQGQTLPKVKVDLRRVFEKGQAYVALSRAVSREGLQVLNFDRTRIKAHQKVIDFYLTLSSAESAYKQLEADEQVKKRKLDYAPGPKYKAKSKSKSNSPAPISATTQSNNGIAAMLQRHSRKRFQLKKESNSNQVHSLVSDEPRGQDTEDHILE
The series is described as follows: BLI. (Biolayer interferometry detects binding as a change in optical thickness at a sensor tip.)

Another series addresses T2, UM-Pif1ΔN (unmodified) (Saccharomyces cerevisiae, UniProt P07271 234-859, del1-233).
T2 sequence: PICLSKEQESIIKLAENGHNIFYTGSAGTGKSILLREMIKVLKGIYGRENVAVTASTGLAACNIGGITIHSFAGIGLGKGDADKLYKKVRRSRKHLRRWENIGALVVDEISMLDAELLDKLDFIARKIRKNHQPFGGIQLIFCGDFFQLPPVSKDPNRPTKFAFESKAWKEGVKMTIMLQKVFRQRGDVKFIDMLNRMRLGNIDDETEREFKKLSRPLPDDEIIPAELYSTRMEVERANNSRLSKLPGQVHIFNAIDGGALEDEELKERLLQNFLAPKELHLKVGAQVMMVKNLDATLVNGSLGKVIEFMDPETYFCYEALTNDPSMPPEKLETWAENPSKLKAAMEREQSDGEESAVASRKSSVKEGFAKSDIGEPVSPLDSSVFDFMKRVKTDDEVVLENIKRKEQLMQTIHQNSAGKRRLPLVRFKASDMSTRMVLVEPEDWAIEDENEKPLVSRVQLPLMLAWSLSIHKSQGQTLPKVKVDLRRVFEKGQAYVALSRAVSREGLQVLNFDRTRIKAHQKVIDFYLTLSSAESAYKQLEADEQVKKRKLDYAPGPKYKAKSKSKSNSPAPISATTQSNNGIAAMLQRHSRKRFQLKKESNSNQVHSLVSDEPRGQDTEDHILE
The series is described as follows: BLI.

As usually defined, the Kd is the constant that tells how readily two partners part at equilibrium. Take TTTTTTTTTTTTTTTTTTTTTTTTTGTGTCACTCACATAGCGTTC (ssDNA) [T1 45-nt ssDNA]: the Kd in series [1] was determined as 19.1 ± 5.1 nM; with UM-Pif1ΔN (unmodified), 14.1 ± 1.5 nM.
